Results published in PMC9723649.

Columns and labels:
purified protein [1] = substrate: Nc1ncnc2c1ncn2[C@@H]1O[C@H](COP(=O)(O)OP(=O)(O)OP(=O)(O)O)[C@@H](O)[C@H]1O; assay: purified protein
purified protein [2] = substrate: N[C@@H](CO)C(=O)O; assay: purified protein

B1: SARS2 (human mitochondrial seryl-tRNA synthetase, mature form) (Homo sapiens; INS217NLSP/K218R) (protein)
chain: TTEKRNRNLLYEYAREGYSALPQLDIERFCACPEEAAHALELRKGELRSADLPAIISTWQELRQLQEQIRSLEEEKAAVTEAVRALLANQDSGEVQQDPKYQGLRARGREIRKELVHLYPREAQLEEQFYLQALKLPNQTHPDVPVGDESQARVLHMVGDKPVFSFQPRGHLEIGEKLDIIRQNLSPRRLSHVSGHRSYYLRGAGALLQHGLVNFTFNKLLRRGFTPMTVPDLLRGAVFEGCGMTPNANPSQIYNIDPARFKDLNLAGTAEVGLAGYFMDHTVAFRDLPVRMVCSSTCYRAETNTGQEPRGLYRVHHFTKVEMFGVTGPGLEQSSQLLEEFLSLQMEILTELGLHFRVLDMPTQELGLPAYRKFDIEAWMPGRGRFGEVTSASNCTDFQSRRLHIMFQTEAGELQFAHTVNATACAVPRLLIALLESNQQKDGSVLVPPALQSYLGTDRITAPTHVPLQYIGPNQPRKPGLPGQPAVS
Purified protein [1]
  Km: 64.69 ± 4.48 µM
Purified protein [2]
  Km: 1660 ± 30 µM
